Source: patent US20200407397A1 (published 2020)

Key:
recombinant LDHA [1] = biological target: T1, recombinant LDHA (human, UniProt P00338 1-332)
recombinant LDHA [2] = biological target: T1, recombinant LDHA; remark: listed apart in the source

B1: FLCN-10 peptide (peptide)
peptide: AQRMNTAFTP
IC50 (recombinant LDHA [1]): 82.2 nM
Ki (recombinant LDHA [2]): 57.4 nM
